Patent CN114195889A (NANJING FUJIEKANG BIOTECHNOLOGY CO LTD, dated 2022)

Molecular target: T1, 人源重组SARS-Cov-2-N蛋白 (SARS-CoV-2, UniProt P0DTC9 1-419)
T1 construct: range 1-419; also called SARS-Cov-2-N重组蛋白; 新冠病毒N蛋白
Test: ELISA dose-response on coated N protein

B1: 纳米抗体1B2 (VHH)
VHH: ESGGGSVQAGGSLKLSCVAFGYTYTSGCMGWFRQAPGKGREGVATICNTDGTTAYANSVKGRFTISQDNAKNTVYLQMNSLKAEDSAMYYCAAGRTPYELASGGKNWGQGTQVTVSS
notes: also called VHH4
B1: binds.
